# Experimental data: article PMC4753514
# Key:
# [1] = target: ProG-TGT (Protein G fragment, amino acids 190-384, conjugated to a double-stranded DNA tension gauge tether with biotin) (UniProt P19909); assay: micro-ring resonator; 200 ug/ml neutravidin, 0.05 uM ProG-TGT and 50 ug/ml Ecad-Fc flowed successively over a polymer-passivated surface presenting biotin; ProG-TGT held through biotin:neutravidin; film thickness read out
# [2] = target: Ecad-Fc (recombinant human epithelial cadherin fused with IgG-Fc)
Substance,film thickness increase [1] [pm],stoichiometry N (Ecad-Fc per ProG-TGT (molar ratio)) [1],surface density of adhered DLD-1 cells on the ProG-TGT (43 pN) surface with Ecad-Fc (control surface without Ecad-Fc: 8/mm^2) [2]
Ecad-Fc (recombinant human epithelial cadherin fused with IgG-Fc) (Fc fusion),237,0.87,–
E-cadherin on DLD-1 cells (from UniProt P12830 155-882) (receptor),–,–,386 /mm^2
